{
  "source": "patent US20240376216A1",
  "about": "(NINGBO T MAXIMUM BIOPHARMACEUTICALS, published 2024)",
  "target": "T1, IL13Rα2 on U251-LG target cells (UniProt Q14627 27-380, limits assumed)",
  "T1 sequence (looked up)": "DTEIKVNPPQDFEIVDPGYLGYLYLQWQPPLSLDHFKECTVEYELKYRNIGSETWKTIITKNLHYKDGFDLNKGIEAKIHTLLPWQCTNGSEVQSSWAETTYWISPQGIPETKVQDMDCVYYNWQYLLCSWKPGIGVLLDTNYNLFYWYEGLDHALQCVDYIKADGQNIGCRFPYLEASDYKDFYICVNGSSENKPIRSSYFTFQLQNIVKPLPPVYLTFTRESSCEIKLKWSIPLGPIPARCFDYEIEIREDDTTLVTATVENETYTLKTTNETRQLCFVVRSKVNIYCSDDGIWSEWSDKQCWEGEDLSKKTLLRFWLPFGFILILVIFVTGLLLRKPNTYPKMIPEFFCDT",
  "experiment": "cell-based or functional assay",
  "data": [
    {"binder": "anti-IL13Rα2 CAR VLVH (murine) (other) DIVMTQSHKFISTSVGDRVSITCKASQDVGTAVAWYQQIPGQSPKLLIYSASYRSTGIPDRFTGSGSGTDFSFIISSVQAEDLALYYCQHHYSAPWTFGGGTTLDIKGGGGSGGGGSGGGGSEVQLVESGGDLVRPGGSLQLSCAASGFTFSRNGMSWVRQTPDRRLEWVATVSSGGSYIYYADSVKGRFTISRDNARNTLYLQMSSLKSEDTAMYYCARQGTTALATRFFDVWGAGTTVTVSSFVPVFLPAKPTTTPAPRPPTPAPTIASQPLSLRPEACRPAAGGAVHTRGLDFACDIYIWAPLAGTCGVLLLSLVITLYCNHRNKRGRKKLLYIFKQPFMRPVQTTQEEDGCSCRFPEEEEGGCELRVKFSRSADAPAYQQGQNQLYNELNLGRREEYDVLDKRRGRDPEMGGKPRRKNPQEGLYNELQKDKMAEAYSEIGMKGERRRGKGHDGLYQGLSTATKDTYDALHMQALPPR", "values": [
      {"measurement": "killing efficiency (lysis of target cells by luciferase activity, 24 h co-culture, effector-to-target ratio 2:1)", "value": "> 90", "unit": "%"}
    ]}
  ]
}
